For the assay, the target named is Recombinant purified HER2 receptor composed of the ectodomain of HER2 fused to the Fc of human IgG (human) (UniProt P04626). In words: SPR (Biacore 3000), HER2-Fc immobilized, peptide as analyte, 25 C.

Positions of bridges follow the written chain, without caps; N, C: chain ends. No end group written: not given here.

On to FCGDGFYACYMDV-OH (disulfide 2-9) [AHNP analogue 8, …-OH (cyclic)], for which the Kd was 760 nM, the koff came out at 0.000701 s⁻¹ and the kon amounted to 922 M⁻¹ s⁻¹.

Source of the values: patent publication US20100311669A1.
